{
  "source": "the supplement of paper PMC10567573",
  "parents": {"B1": {"name": "RAB22A (parent)", "chain": "FVEDSFDPNINPTIGASFMTKTVQ"}},
  "data": [
    {"variants_of": "B1", "experiment": "protein stability index of a GFP-peptide fusion (GPS, HEK-293T) (PSI 1-6); higher = more stable", "details": "c terminus: a fixed tail appended", "values": [
      {"variant": "FVEDSFDPNINPTSGASFMTKTVQ", "protein stability index": 2.46},
      {"variant": "FVEDSFDPNINPTEGASFMTKTVQ", "protein stability index": 3.21},
      {"variant": "FVEDSFDPNINPTWGASFMTKTVQ", "protein stability index": 2.43},
      {"variant": "FVEDSFDPNINPTLGASFMTKTVQ", "protein stability index": 2.14},
      {"variant": "FVEDSFDPNINPTGGASFMTKTVQ", "protein stability index": 2.59},
      {"variant": "FVEDSFDPNINPTYGASFMTKTVQ", "protein stability index": 2.23},
      {"variant": "FVEDSFDPNINPTQGASFMTKTVQ", "protein stability index": 2.78},
      {"variant": "FVEDSFDPNINPTMGASFMTKTVQ", "protein stability index": 2.55},
      {"variant": "FVEDSFDPNINPTKGASFMTKTVQ", "protein stability index": 2.29},
      {"variant": "FVEDSFDPNINPTPGASFMTKTVQ", "protein stability index": 3.07},
      {"variant": "FVEDSFDPNINPTVGASFMTKTVQ", "protein stability index": 2.69},
      {"variant": "FVEDSFDPNINPTIGAFFMTKTVQ", "protein stability index": 2.14},
      {"variant": "FVEDSFDPNINPTIGAAFMTKTVQ", "protein stability index": 2.18},
      {"variant": "FVEDSFDPNINPTIGAHFMTKTVQ", "protein stability index": 2.35},
      {"variant": "FVEDSFDPNINPTIGACFMTKTVQ", "protein stability index": 2.04},
      {"variant": "FVEDSFDPNINPTIGAEFMTKTVQ", "protein stability index": 2.66},
      {"variant": "FVEDSFDPNINPTIGADFMTKTVQ", "protein stability index": 2.53},
      {"variant": "FVEDSFDPNINPTIGAGFMTKTVQ", "protein stability index": 2.31},
      {"variant": "FVEDSFDENINPTIGASFMTKTVQ", "protein stability index": 2.7},
      {"variant": "FVEDSFDQNINPTIGASFMTKTVQ", "protein stability index": 2.26},
      {"variant": "FVEDSFDWNINPTIGASFMTKTVQ", "protein stability index": 2.65},
      {"variant": "FVEDSFDININPTIGASFMTKTVQ", "protein stability index": 1.67},
      {"variant": "FVEDSFDNNINPTIGASFMTKTVQ", "protein stability index": 2.35},
      {"variant": "FVEDSFDCNINPTIGASFMTKTVQ", "protein stability index": 2.02},
      {"variant": "FVEDSFDRNINPTIGASFMTKTVQ", "protein stability index": 2.63},
      {"variant": "FVEDSFDGNINPTIGASFMTKTVQ", "protein stability index": 2.52},
      {"variant": "FVEDSFDANINPTIGASFMTKTVQ", "protein stability index": 2.33},
      {"variant": "FVEDSFDYNINPTIGASFMTKTVQ", "protein stability index": 1.85},
      {"variant": "FVEDSFDHNINPTIGASFMTKTVQ", "protein stability index": 2.1},
      {"variant": "FVEDSFDMNINPTIGASFMTKTVQ", "protein stability index": 2.06},
      {"variant": "FVEDSFDFNINPTIGASFMTKTVQ", "protein stability index": 2.94},
      {"variant": "FVEDSFDLNINPTIGASFMTKTVQ", "protein stability index": 2.1},
      {"variant": "FVEDSFDKNINPTIGASFMTKTVQ", "protein stability index": 2.13},
      {"variant": "FVEDSFDSNINPTIGASFMTKTVQ", "protein stability index": 2.17},
      {"variant": "FVEDSFDTNINPTIGASFMTKTVQ", "protein stability index": 2.39},
      {"variant": "FVEDSFDVNINPTIGASFMTKTVQ", "protein stability index": 2.27},
      {"variant": "FVEDSFDDNINPTIGASFMTKTVQ", "protein stability index": 2.76},
      {"variant": "FVEDSFDPAINPTIGASFMTKTVQ", "protein stability index": 2.25},
      {"variant": "FVEDSFDPQINPTIGASFMTKTVQ", "protein stability index": 2.1},
      {"variant": "FVEDSFDPPINPTIGASFMTKTVQ", "protein stability index": 2.49},
      {"variant": "FVEDSFDPSINPTIGASFMTKTVQ", "protein stability index": 2.51},
      {"variant": "FVEDSFDPGINPTIGASFMTKTVQ", "protein stability index": 2.78},
      {"variant": "FVEDSFDPFINPTIGASFMTKTVQ", "protein stability index": 1.92},
      {"variant": "FVEDSFDPWINPTIGASFMTKTVQ", "protein stability index": 2.65},
      {"variant": "FVEDSFDPCINPTIGASFMTKTVQ", "protein stability index": 2.08},
      {"variant": "FVEDSFDPLINPTIGASFMTKTVQ", "protein stability index": 1.66},
      {"variant": "FVEDSFDPHINPTIGASFMTKTVQ", "protein stability index": 2.22},
      {"variant": "FVEDSFDPVINPTIGASFMTKTVQ", "protein stability index": 2.04},
      {"variant": "FVEDSFDPTINPTIGASFMTKTVQ", "protein stability index": 2.26},
      {"variant": "FVEDSFDPDINPTIGASFMTKTVQ", "protein stability index": 2.73},
      {"variant": "FVEDSFDPKINPTIGASFMTKTVQ", "protein stability index": 1.88},
      {"variant": "FVEDSFDPMINPTIGASFMTKTVQ", "protein stability index": 2.35},
      {"variant": "FVEDSFDPYINPTIGASFMTKTVQ", "protein stability index": 1.72},
      {"variant": "FVEDSFDPRINPTIGASFMTKTVQ", "protein stability index": 1.95},
      {"variant": "FVEDSFDPEINPTIGASFMTKTVQ", "protein stability index": 2.47},
      {"variant": "FVEDSFDPIINPTIGASFMTKTVQ", "protein stability index": 2.23},
      {"variant": "FVEDSFDPNINPTIGSSFMTKTVQ", "protein stability index": 2.86},
      {"variant": "FVEDSFDPNINPTIGLSFMTKTVQ", "protein stability index": 1.81},
      {"variant": "FVEDSFDPNINPTIGFSFMTKTVQ", "protein stability index": 2.07},
      {"variant": "FVEDSFDPNINPTIGESFMTKTVQ", "protein stability index": 3.38},
      {"variant": "FVEDSFDPNINPTIGPSFMTKTVQ", "protein stability index": 2.54},
      {"variant": "FVEDSFDPNINPTIGNSFMTKTVQ", "protein stability index": 2.74},
      {"variant": "FVEDSFDPNINPTIGYSFMTKTVQ", "protein stability index": 1.95},
      {"variant": "FVEDSFDPNINPTIGQSFMTKTVQ", "protein stability index": 2.61},
      {"variant": "FVEDSFDPNINPTIGDSFMTKTVQ", "protein stability index": 2.55},
      {"variant": "FVEDSFDPNINPTIGRSFMTKTVQ", "protein stability index": 2.26},
      {"variant": "FVEDSFDPNINPTIGWSFMTKTVQ", "protein stability index": 2.15},
      {"variant": "FVEDSFDPNINPTIGISFMTKTVQ", "protein stability index": 2.11},
      {"variant": "FVEDSFDPNINPTIGHSFMTKTVQ", "protein stability index": 2.11},
      {"variant": "FVEDSFDPNINPTIGVSFMTKTVQ", "protein stability index": 1.81},
      {"variant": "FVEDSFDPNINPTIGTSFMTKTVQ", "protein stability index": 2.26},
      {"variant": "FVEDSFDPNINPTIGCSFMTKTVQ", "protein stability index": 1.8},
      {"variant": "FVEDSFDPNINPTIGKSFMTKTVQ", "protein stability index": 1.97},
      {"variant": "FVEDSFDPNINPTIGMSFMTKTVQ", "protein stability index": 1.75},
      {"variant": "FVEDSFDPNINPTIGGSFMTKTVQ", "protein stability index": 2.56},
      {"variant": "FVEDSFDPNINQTIGASFMTKTVQ", "protein stability index": 2.45},
      {"variant": "FVEDSFDPNINYTIGASFMTKTVQ", "protein stability index": 2.37},
      {"variant": "FVEDSFDPNINITIGASFMTKTVQ", "protein stability index": 1.82},
      {"variant": "FVEDSFDPNINMTIGASFMTKTVQ", "protein stability index": 1.89},
      {"variant": "FVEDSFDPNINETIGASFMTKTVQ", "protein stability index": 2.57},
      {"variant": "FVEDSFDPNINGTIGASFMTKTVQ", "protein stability index": 2.29},
      {"variant": "FVEDSFDPNINCTIGASFMTKTVQ", "protein stability index": 2.06},
      {"variant": "FVEDSFDPNINNTIGASFMTKTVQ", "protein stability index": 2.15},
      {"variant": "FVEDSFDPNINATIGASFMTKTVQ", "protein stability index": 2.13},
      {"variant": "FVEDSFDPNINDTIGASFMTKTVQ", "protein stability index": 2.49},
      {"variant": "FVEDSFDPNINHTIGASFMTKTVQ", "protein stability index": 2.46},
      {"variant": "FVEDSFDPNINKTIGASFMTKTVQ", "protein stability index": 2.42},
      {"variant": "FVEDSFDPNINVTIGASFMTKTVQ", "protein stability index": 2.18},
      {"variant": "FVEDSFDPNINSTIGASFMTKTVQ", "protein stability index": 2.4},
      {"variant": "FVEDSFDPNINFTIGASFMTKTVQ", "protein stability index": 2},
      {"variant": "FVEDSFDPNINTTIGASFMTKTVQ", "protein stability index": 2.25},
      {"variant": "FVEDSFDPNINRTIGASFMTKTVQ", "protein stability index": 1.81},
      {"variant": "FVEDSFDPNINWTIGASFMTKTVQ", "protein stability index": 2.08},
      {"variant": "FVEDSFDPNINLTIGASFMTKTVQ", "protein stability index": 1.85}
    ]}
  ]
}
